Assay results as given in the nanobody polyreactivity screen of Harvey et al. (2022).

Assay: yeast display, Sf9 membrane polyspecificity reagent, FACS + sequencing; frameworks hold sequencing errors
How it was run: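 Nanobodies from a synthetic yeast display library (Saccharomyces cerevisiae BJ5465), induced 36–48 hours with galactose, were stained 1 hour at 4 °C with 10% biotinylated, detergent-solubilized Sf9 membrane reagent, enriched on streptavidin microbeads, then FACS-sorted. Anti-HA (expression) and streptavidin (reagent binding) fluorescence set low and high (top ~1%) gates. Polyreactivity labels come from the gate of origin. Genes were colony-PCR amplified, MiSeq 2 × 250 sequenced and filtered by CDR length.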

Row | Sequence | polyreactivity (PSR sort gate)
1 | QVQLVESGGCLVQAGGSLRLSCSASGSTITYYAMGWYRQAPGKERELVAAISGRGGRTDYADSVKGRFTISRDNAKNTVYLQMNSLKPEATAVYYCARAGRVQPGSEDDYWGQGTQVTVSS | high polyreactivity
2 | QVQLVESGGCLVQAGGSLRLSCSSSGSTFEYNAIGWYRQAPGKERELVAAIRSSSSTHYADSVKGRFTISRDNAKNTVYLQMNSLKPEDTAVYYFNTDAHYYDHWGQGTQVTVSS | low polyreactivity
3 | QVQLVESGGCLVQAGGSLRLSCSTSGSTFAVYVMGWSRQAPGKERELVAAISTSGARTYYADSVKGRFTISRDNAKNTDYLQMNSLKPEDTAVYYCAARGIYKSKYDYWGQGTQVSVSS | high polyreactivity
4 | QVQLVESGGCLVQAGGSLRLSSPASGITFPDYDMGWYRQAPGKERELVAAITYRSGSTYYADSVKGRFTISRDNAKNTVYFQMNSLKPEDTAVYYCAAKRFLLRYYTKQYNYWGQGTQVTVSS | high polyreactivity
5 | QVQLVESGGCLVQAGGSLRLTCAASGFIFPYYAMGWYRQAPGKERELVAGITGADSTYYADSVKGRFTISRDNAKNTVYLQMNSLKPEDTAVYYCARKRYSLSRTYNYGYWGQGTQVTVSS | high polyreactivity
6 | QVQLVESGGCLVQAGGSLRLTCAASGRTFYRYAMGWSRQAPRKERELVAAITTSGGSTYYADSVKGRFTISRDNAMTTVFLQKNSLNPDDTEVYYCAATYYGYHIRDDYWGQGTQVTVSS | low polyreactivity
7 | QVQLVESGGCLVQAGGSLSLSCAASGFTFSWNAMGWYRQAPGKERELVATITRSGSTYYADSVKGRFTISRDNAKNTVYLLMNSLKPEDTAVYYCAVVSWYRYSRYENDYWGQGTQVTVSS | high polyreactivity
8 | QVQLVESGGCLVQAGRSLRLSCAASGSTFYYNAMAWYRQAPGKERELVAAITFTGGSTYADSVKGRFTISRDNAKNTVYFQMNSQKPEDTAVYYCAATIQGHDYLGTGYDYWGQGTQVTVSS | low polyreactivity
9 | QVQLVESGGCLVQARGSLRLSCAASGFIFRSYAMGWYRPAPGKERELVAAISRSGGSTYYADSVKGRFTISRDNAKNTVYLQMNSLKPEDTAVYYCAAEYRIPYFFTYVYWGQGTKVTVSS | high polyreactivity
10 | QVQLVESGGCLVQARGTLRLSCASSGRTIYLYAMPWYRQAPAKERELVAAITKSGGSTYYADSVKGRFTISRDIAMNTVYVQMNSLKPQDTAFYYCYKDLSSTNLDYWGQGTQFTVSS | low polyreactivity
11 | QVQLVESGGCLVQEGGSLRLSCPASGSIFDDYAMGWYRQAPGKERELVAAISDSCGSTYYADSVKGRFTISRDNAKNTVYLQMNSLNQEDTAVYYCNADRDDDYDYWGEGTQVTVSS | low polyreactivity
12 | QVQLVESGGCLVQSGGRLRLSCAASGRIFYPYVMGWYRQAPGKEREFVAAITRSGGSTNADSVKGLFTISRDNAKNTVYLLLNSLKPEDTAVYYCARRVNRRYPFYQRDYWGQGTQVTVSS | high polyreactivity
13 | QVQLVESGGCLVQSGGSLRLSCAATGSTFGRNAMGWSRQAPGKESELVAAISRGGGITYYADSVKGRFTISRDNAKNTVYFQMNSLKPEDTAVYYCNAYLSKYFRYDYWGQGTQVTVSS | high polyreactivity
14 | QVQLVESGGCSVQAGGSLRLSCAAAGRIFSYYAMGWYRQAPGKERELVAAITSGGRTYYADSVKGRFTISRDNAKTTVYLQMNSLKPEDTAVYYCAVGVRNQYYYWGQGTQVTVSS | high polyreactivity
15 | QVQLVESGGDLVQAGGSLRLSCAASGITFRRYTMGWYRQAPGKERELVAAISSGGSTNYADSVKGRFTISRDNAKNTVYLQMNSLKPEDTAVYYCAATRRYIQYGYDYWGQGTQVTVSS | high polyreactivity
16 | QVQLVESGGFLVQAGGSHRLSCAASGFTFQSNSMVWYRQAPGKERELVATITYSGGRTYYADSVKGRFTISRDNAKNTVYLQMNSLKPEDTAVYSCAARLAPLYRTYYYWGQGTQVTVSS | low polyreactivity
17 | QVQLVESGGGEVQAGGSLRLSCAASGNIFVKYNMGWYRQAPGKERKLVAAIRWSGGTTNYADSVKGRFTISRDNAKSTVYLQMNSLKPEDTAVYYCNTGYWFFGYNEYDYWGQGTQVTVSS | low polyreactivity
18 | QVQLVESGGGFDQARCSLRLSCPACASILREYAMGWYRQAPGKERELVATISRDGSTNYADSVKGRFTISRDNAKNTVYLQMNSLKPEDTAVYYCNTDLTYPYPNVEVLVYGFKLDYWGQGTQVTVSS | low polyreactivity
19 | QVQLVESGGGFVQAGGSLRLSCAASGFTFKAYAMGLYRQAPGKERELVATINRSGTGTYYADSVKGRFTISRDYAKNTVYLLMNSLKPEDTAVYYCNKRSHHNYYTYDYWGQGTQVTVSS | high polyreactivity
20 | QVQLVESGGGFVQAGGSLRLSCAASGRIFYGYAMGWYRQAPGKERELVAAISSGGITYYADSVKGRFTISRDNAKNTVYLQMNSLKPEDTAVYYCAADWAYYVASYLYYTFDYWGQGTQVTVSS | low polyreactivity
21 | QVQLVESGGGFVQAGGSLRLSCAASGRTFRKYAMGWYRQAPGKERELVAAITSSGGSTYYADSVKGRFTISRDNAKNTVYLQMNSLKPEDTAVYYCAAGRHSEDNYWGQGTQVTVSS | high polyreactivity
22 | QVQLVESGGGFVQAGGSLRLSCAASGRTFSYYAMGCYRQAPGKERELVASISGGGRTNYADSVKGRFTISRDNAKNTVYLQMNSLKAEDTAVYYCAARYEVRHTLYNYWGQGTQVTVSS | high polyreactivity

Row | Sequence | polyreactivity (PSR sort gate)
23 | QVQLVESGGGFVQAGGSLRLSCAASGRTFWNYAMGWYRPAPGKERELVAVIRFSDGSTYYADSVKGRFTISRDHAKNTVYLQMNSLKPEDTAVYYCAAKGPRRWGSGFDYWGQGTQVTVSS | low polyreactivity
24 | QVQLVESGGGFVQAGGSLRLSCAASGSIFDPYAMGWYIQAPGKERELVAAINWSGDSTYYADSVKGRFTISRDNAKNTVYLQMYSLKPEDTAVYYCAADPTDDTHLYYYWRQGTQVTVSS | low polyreactivity
25 | QVQLVESGGGFVQAGGSLRLSCAASGSIFDYYTMGWYRQAPGKERELVATIRSGDSTNYADSVKGRFTISRDNAKNTVYLPMNSLKPEDPAVYYCAADYGYQDDYWGQGTQVTVSS | low polyreactivity
26 | QVQLVESGGGFVQAGGSLRLSCAASGSIFYTYVMGWYRQAPGKERELVAAITWSGGSTYYADSVKGRFTISRDNAKNTVYLQMNSLKPEDTAVYYCAAVRGYRSSKYDYWGQGTQVTVSS | high polyreactivity
27 | QVQLVESGGGFVQAGGSLRLSCAASGSIIKRNAMGWYRQAPGKERELVASISSGGSTKYADSVKGRFTLSRDNAKNTVYLQMNSLKPEDTAVYYCAKRSSQTRRAYDYWGQGTQVTVSS | low polyreactivity
28 | QVQLVESGGGFVQAGGSLRLSCAASGSTFAYYAMGWDRQAPGKERELVAAITRGGRTYYADSVKGRFTISRDNPKNTVYLQMNSQKPDDTAVYYCNARKYTWYSSRFIRFDYWGQGTQVTVSS | high polyreactivity
29 | QVQLVESGGGFVQAGGSLRLSCAASGSTLPYYAMGWYRQAHGKERELVADITARGGTYYADSVKGRFTISRDNAKNTVYLQMNSLKPEDTAVYYCAAAYSLWQFYWDQGYDYWGQGTQVTVSS | high polyreactivity
30 | QVQLVESGGGFVQAGGSLRLSCAASGVTYGGYAMGWYRQAPGKERELVAAITGSAGNTFYADSVKGRFTISRDNAKHTVYLQMNSLKPEDTAVYYCANTWYPWSRYGYYGRYDSWGLGTQVTVSS | low polyreactivity
31 | QVQLVESGGGFVQAGGSLRLSCAASGYIFGIYAMGWYRQAPGKERELVAAISTSGGSTYYADSVKGRFTISRDNAKNTVYLQMNSLKPEDTAVYYCARPTTYGYYYWGQGTQVTVSS | high polyreactivity
32 | QVQLVESGGGFVQAGGSLRLSCAAYGRTFGRYAMGWYRQAPGKERELVAAIRSGGSTYYADSVKGRFTISRDNAKNTVYLQMNSLKPEDTAVYYCAADIARHLTVFAYYRLDYWGQGTQVTVSS | low polyreactivity
33 | QVQLVESGGGFVQAGGSLRLTCAASALTFQYNAMGWYRQAPGKETELVAAISRSGGRTYYADSVKGRFTISRDNAKNTVYLQMNSLKPEDTAVYYCARRGGVVYSSGYNYLGQGTQVTVSS | high polyreactivity
34 | QVQLVESGGGFVQARGSLRLSCAASGSIFWLYAMGWYSQAPGKERELVAAISWSTGGTYYADSVKGRFTISRDNAKNTVYLQMNSQKPEDTAVYYCNKLWVGKFKRYEFGYWGQGTQVTVSS | low polyreactivity
35 | QVQLVESGGGIDQAGGSLRLSCAASGSNFYTYAMGWYRQAPGKEREFVAAITRGGARTYYADSVKWRFTISRDNAKNTVYLQMNSLKPEDTAVYYCAKLGKATTQVGSDYWGQGTQVSVSS | low polyreactivity
36 | QVQLVESGGGIDQAGGSLRLSCAASGSTFPRYAMGWYRQAPGKERELVAAISRSGGSTYYADSVKWRFTISRDNAKNTVDLQMNCLKPEDTAVYYCAGRYERGSYKYDYWGQGTEVTVSS | high polyreactivity
37 | QVQLVESGGGIVHAGGSLRLSCAASGSTFDSYARGWYRQAPGKERELVAAITDSGSSTYYADSVKGRFTISRDNAKNTVYLQMNSLKPEDSAVYYCANYDYHGWSYYRYDYWGQGTQVTVSS | low polyreactivity
38 | QVQLVESGGGIVQAGGILRLSSAASGRIFLGYAMGWSRQAPGKERELVASISGPAGSTNYADSVKGRFTISRDNAKNTVYLQMNSLKPEDTAVYYCAAEERYAYRYDYWGQGTQVTVSS | high polyreactivity
39 | QVQLVESGGGIVQAGGRLRLRCAASGFTFGRYAMGWYRQEPGKEREFVAAITWSGGGTYYADSVKGRFTISRDNAKNTVYLQMNSLKPEDTAVYYCAADRRAYGGGYLGQGTQVTVSS | high polyreactivity
40 | QVQLVESGGGIVQAGGRLRLSCAASGITFRFYAMGWYRQAPGKERELVAVISRGGGTTYYADSVKGRFTISRDNEKNTVYLEMNSLKPEDTEVFYCNAVFAWYRSDEYDYWGQGTLVTVSS | high polyreactivity
41 | QVQLVESGGGIVQAGGRLRLSCAASGMIFYFYALGWYRPAPGKERELVAAITSGARTYYADSVKGRFTISRDNAKNTVYLQINSLKPEDTAVYYCAADVKRDRVWGGDYWGQGTQVTVSS | low polyreactivity
42 | QVQLVESGGGIVQAGGRLRLSCAASGRTSAVNAMVWYRQAPGKERELVAAITKSGGRTYYADSEKGRFTISRDNAKNTVYLQMNSLKPEDTAVYYCATSLLSRYGMDYWGQGTQVTVSS | high polyreactivity
43 | QVQLVESGGGIVQAGGSIRLSCAASGRIFRYYAMGWYRQAPGKERELVATISRSGGSTFYAESVKGRFTISRDNAKNTVYLQMNSLIPEDTAVYYCNARYQTGGYGYWGQGTQVTVSS | high polyreactivity
